Results as given in paper PMC5468325.
Values belong to the substance of their own block, whether it stands above or below them.

What was measured:
[1] = target: RXFP1 LDLa-linker (human); test: NMR titration; RXFP1 LDLa-linker titrated with truncated relaxin (Supp Fig. 5)
RXFP2(1-65) P4F (human) = test: NMR titration; 2D 1H-15N HSQC; increasing concentrations of titrant against 50 µM 15N-labelled RXFP2(1-65) P4F; 25 °C, 50 mM imidazole, 10 mM CaCl2, pH 6.8
[2] = target: Relaxin family peptide receptor 2 (RXFP2), wild type (human) (UniProt Q8WXD0); test: europium-labelled ligand saturation binding on whole cells (time-resolved fluorescence); HEK293T cells transiently transfected with receptor; increasing concentrations of Eu-INSL3 or Eu-H2 relaxin with or without 1 µM unlabeled ligand, 1 h incubation; one-site binding curves
UniProt Q8WXD0, sequence (Q8WXD0 whole entry): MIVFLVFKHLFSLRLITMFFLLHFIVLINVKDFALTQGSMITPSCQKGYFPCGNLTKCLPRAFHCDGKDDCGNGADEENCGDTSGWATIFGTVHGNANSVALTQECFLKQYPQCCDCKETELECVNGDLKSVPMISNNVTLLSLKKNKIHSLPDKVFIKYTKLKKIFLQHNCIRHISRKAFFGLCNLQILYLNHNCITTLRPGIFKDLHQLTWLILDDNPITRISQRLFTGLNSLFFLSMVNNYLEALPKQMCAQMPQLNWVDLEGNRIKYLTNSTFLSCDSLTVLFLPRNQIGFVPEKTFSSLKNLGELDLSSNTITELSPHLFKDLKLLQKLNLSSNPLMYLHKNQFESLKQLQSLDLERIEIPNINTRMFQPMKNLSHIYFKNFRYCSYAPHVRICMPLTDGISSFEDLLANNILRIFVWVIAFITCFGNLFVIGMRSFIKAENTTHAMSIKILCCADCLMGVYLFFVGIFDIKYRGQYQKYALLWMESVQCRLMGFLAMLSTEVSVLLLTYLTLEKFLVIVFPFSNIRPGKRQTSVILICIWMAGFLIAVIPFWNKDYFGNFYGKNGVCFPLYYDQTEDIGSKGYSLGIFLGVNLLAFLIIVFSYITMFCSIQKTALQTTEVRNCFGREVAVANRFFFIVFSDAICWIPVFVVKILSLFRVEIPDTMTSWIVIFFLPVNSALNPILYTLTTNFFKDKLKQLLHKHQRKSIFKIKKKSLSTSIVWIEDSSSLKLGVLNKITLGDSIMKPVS

[3] = target: Relaxin family peptide receptor 2 (RXFP2), wild type (human) (UniProt Q8WXD0)
RXFP2-F51A (human) [4] = target: RXFP2-F51A (human)
RXFP2 S45A (human) [5] = target: RXFP2 S45A (human)
RXFP2-G42A (human) [6] = target: RXFP2-G42A (human)
RXFP2 T44A (human) [7] = target: RXFP2 T44A (human)
RXFP2-F51A (human) [8] = test: europium-labelled ligand saturation binding on whole cells (time-resolved fluorescence); HEK293T cells transiently transfected with receptor; increasing concentrations of Eu-INSL3 or Eu-H2 relaxin with or without 1 µM unlabeled ligand, 1 h incubation; one-site binding curves
RXFP2 S45A (human) [9] = test: as above
RXFP2 D43A (human) = test: as above
RXFP2-G42A (human) [10] = test: as above
RXFP2 T44A (human) [11] = test: as above
RXFP2 W47A (human) = test: as above
RXFP2-G46A (human) = test: as above

- Kd [1]: 90000 nM
- Kd (RXFP2(1-65) P4F (human)): 330000 nM
Substance: B5-29 [B-K9R,A-K9/17R] H2 relaxin (ligand)

- Kd [2]: 9.96 nM
- Emax: maximal cAMP response (pCRE beta-galactosidase reporter, HEK293T) to unlabelled H2 relaxin, max value based on 1 µM activation [3]: 100%
- pEC50 of the cAMP response (pCRE beta-galactosidase reporter, HEK293T) to unlabelled H2 relaxin [3]: 8.45
- Emax: maximal cAMP response (pCRE beta-galactosidase reporter, HEK293T) to unlabelled H2 relaxin, max value based on 1 µM activation (RXFP2-F51A (human) [4]): 18.8%
- pEC50 of the cAMP response (pCRE beta-galactosidase reporter, HEK293T) to unlabelled H2 relaxin (RXFP2-F51A (human) [4]): < 6
- Emax: maximal cAMP response (pCRE beta-galactosidase reporter, HEK293T) to unlabelled H2 relaxin, max value based on 1 µM activation (RXFP2 S45A (human) [5]): 100%
- pEC50 of the cAMP response (pCRE beta-galactosidase reporter, HEK293T) to unlabelled H2 relaxin (RXFP2 S45A (human) [5]): 9.03
- Emax: maximal cAMP response (pCRE beta-galactosidase reporter, HEK293T) to unlabelled H2 relaxin, max value based on 1 µM activation (RXFP2-G42A (human) [6]): 75.2%
- pEC50 of the cAMP response (pCRE beta-galactosidase reporter, HEK293T) to unlabelled H2 relaxin (RXFP2-G42A (human) [6]): 7.98
- Emax: maximal cAMP response (pCRE beta-galactosidase reporter, HEK293T) to unlabelled H2 relaxin, max value based on 1 µM activation (RXFP2 T44A (human) [7]): 53%
- pEC50 of the cAMP response (pCRE beta-galactosidase reporter, HEK293T) to unlabelled H2 relaxin (RXFP2 T44A (human) [7]): 8.63
Substance: Europium (Eu3+)-labelled H2 relaxin (ligand)

- Kd [2]: 1.07 nM
- Kd (RXFP2-F51A (human) [8]): 1.55 nM
- Kd (RXFP2 S45A (human) [9]): 1.05 nM
- Kd (RXFP2 D43A (human)): 1.18 nM
- Kd (RXFP2-G42A (human) [10]): 1.93 nM
- Kd (RXFP2 T44A (human) [11]): 2.11 nM
- Kd (RXFP2 W47A (human)): 1.5 nM
- Kd (RXFP2-G46A (human)): 1.51 nM
- Emax: maximal cAMP response (pCRE beta-galactosidase reporter, HEK293T) to unlabelled INSL3 (% maximal RXFP2 activity) [3]: 100
- pEC50 of the cAMP response (pCRE beta-galactosidase reporter, HEK293T) to unlabelled INSL3 [3]: 9.99
- Emax: maximal cAMP response (pCRE beta-galactosidase reporter, HEK293T) to unlabelled INSL3 (% maximal RXFP2 activity) (RXFP2-F51A (human) [4]): 39.8
- pEC50 of the cAMP response (pCRE beta-galactosidase reporter, HEK293T) to unlabelled INSL3 (RXFP2-F51A (human) [4]): 9.36
- Emax: maximal cAMP response (pCRE beta-galactosidase reporter, HEK293T) to unlabelled INSL3 (% maximal RXFP2 activity) (RXFP2 S45A (human) [5]): 92.2
- pEC50 of the cAMP response (pCRE beta-galactosidase reporter, HEK293T) to unlabelled INSL3 (RXFP2 S45A (human) [5]): 10.1
- Emax: maximal cAMP response (pCRE beta-galactosidase reporter, HEK293T) to unlabelled INSL3 (% maximal RXFP2 activity) (RXFP2-G42A (human) [6]): 39.5
- pEC50 of the cAMP response (pCRE beta-galactosidase reporter, HEK293T) to unlabelled INSL3 (RXFP2-G42A (human) [6]): 8.98
- Emax: maximal cAMP response (pCRE beta-galactosidase reporter, HEK293T) to unlabelled INSL3 (% maximal RXFP2 activity) (RXFP2 T44A (human) [7]): 98.7
- pEC50 of the cAMP response (pCRE beta-galactosidase reporter, HEK293T) to unlabelled INSL3 (RXFP2 T44A (human) [7]): 10.5
Substance: Europium (Eu3+)-labelled INSL3 (ligand)
